In US20220403009A1 (IGM BIOSCIENCES, published 2022):
Positions count from the first letter of the chain named. Read-outs that look alike come from different tables or passages of the source.

Tests used:
[1] = target: T1, SARS-CoV-2 spike protein on live SARS-CoV-2 virus (SARS-CoV-2, UniProt P0DTC2 13-1273); assay: cell-based or functional assay
[2] = target: T2, SARS-CoV-2 spike protein on pseudovirus (SARS-CoV-2, UniProt P0DTC2 13-1273); assay: cell-based or functional assay
[3] = target: SARS-CoV-1 spike protein on HIV-based pseudovirus (SARS-CoV, UniProt P59594 14-1255); assay: cell-based or functional assay
[4] = target: T2, SARS-CoV-2 spike protein on pseudovirus; assay: cell-based or functional assay; remark: listed apart in the source
[5] = target: T1, SARS-CoV-2 spike protein on live …; assay: cell-based or functional assay; remark: listed apart in the source
[6] = target: recombinant SARS-CoV-2 spike (S) protein trimer (SARS-CoV-2, UniProt P0DTC2 13-1213)

B1: Ab7 IgM (antibody)
VH: EVQLVESGGGLVQPGGSLRLSCAVSGFTVSSNYMSWVRQAPGKGLEWVSVIYTGGGTYYADSVKGRFTISRDNSKNTLYLQMNTLRAEDTTVYYCARGDGSYYRAFDYWGQGTLVTVSS
VL: DIQMTQSPSSLSASVGDRVTITCRASQSISNYLNWYHQKPGKAPKLLIYAASSLQSGVPSRFSGSGSGTDFTLTISSLQPEDFATYYCQQSYSPPPTFGPGTKVEIK
chain: not shown
IgM Fold Improvement Over IgG1 [1]: 19 fold
IgM IC50, SARS-CoV-2 live virus microneutralization [1]: 0.0016 µg/mL
IgM Fold Improvement Over IgG1 [2]: 8.8 fold
IgM IC50, SARS-CoV-2 pseudovirus neutralization [2]: 0.042 ng/mL

B2: Ab7 IgG (antibody, V domains shown)
VH: B1 VH
VL: B1 VL
IgG IC50, SARS-CoV-2 live virus microneutralization [1]: 0.03 µg/mL
IgG IC50, SARS-CoV-2 pseudovirus neutralization [2]: 0.00037 µg/mL

B3: Ab8 IgM (antibody)
VH: EVQLVESGGGLIQPGGSLRLSCAASGFTVSRNYMNWVRQAPGKGLEWVSVIYSGGSTFYADSVKGRFTISRDNSKNTLYLQMNSLRAEDTAVYYCARDASSYGIDWGQGTLVTVSS
VL: not shown
chain: not shown
IgM Fold Improvement Over IgG1 [1]: 3.3 fold
IgM IC50, SARS-CoV-2 live virus microneutralization [1]: 0.028 µg/mL
IgM IC50, SARS-CoV-2 pseudovirus neutralization [2]: 2.7 ng/mL

B4: Ab8 IgG (antibody, V domains shown)
VH: B3 VH
VL: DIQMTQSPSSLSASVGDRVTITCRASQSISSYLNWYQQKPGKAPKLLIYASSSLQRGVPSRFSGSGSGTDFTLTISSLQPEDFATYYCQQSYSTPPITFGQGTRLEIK
IgG IC50, SARS-CoV-2 live virus microneutralization [1]: 0.093 µg/mL
IgG IC50, SARS-CoV-2 pseudovirus neutralization [2]: 0.0019 µg/mL

B5: CR3022 IgA2m2 + J (antibody)
VH: QMQLVQSGTEVKKPGESLKISCKGSGYGFITYWIGWVRQMPGKGLEWMGIIYPGDSETRYSPSFQGQVTISADKSINTAYLQWSSLKASDTAIYYCAGGSGISTPMDVWGQGTTVTVSS
VL: not shown
chain: not shown
IC50, SARS-CoV-1 pseudovirus neutralization [3]: 2.3 µg/mL
IC50, SARS-CoV-2 pseudovirus neutralization [4]: > 100000 µg/mL

B6: CR3022 IgA1 + J (antibody)
VH: B5 VH
VL: not shown
chain: not shown
IC50, SARS-CoV-1 pseudovirus neutralization [3]: 1.9 µg/mL
IC50, SARS-CoV-2 pseudovirus neutralization [4]: > 100000 µg/mL

B7: CR3022 IgM + J (antibody)
VH: B5 VH
VL: not shown
chain: not shown
IC50, SARS-CoV-1 pseudovirus neutralization [3]: 0.47 µg/mL
IC50, SARS-CoV-2 pseudovirus neutralization [4]: > 100000 µg/mL

B8: Ab11 IgM (antibody)
VH: QVQLVQSGAEVKKPGSSVKVSCKASGGTFSSYAISWVRQAPGQGLEWMGGNIPIFGTANYAQKFQGRVTITADESTSTAYMELSSLRSEDTAVYYCARGVGYRGVIPLNWFDPWGQGTVVTVSS
VL: EIVMTQSPATLSVSPGERATLSCRASQSVSSDLAWYQHKPGQAPRLLIYGASTRATGIPVRFSGSGSGTEFTLTISSLQSEDFAVYYCQQYNNWPPFTFGGGTKVEIK
chain: not shown
IgM Fold Improvement Over IgG1 [5]: > 870 fold
IgM IC50, SARS-CoV-2 live virus microneutralization [5]: 0.057 µg/mL
IgM Fold Improvement Over IgG1 [2]: 86 fold
IgM IC50, SARS-CoV-2 pseudovirus neutralization [2]: 3.7 ng/mL

B9: Ab11 IgG (antibody, V domains shown)
VH: B8 VH
VL: B8 VL
IgG IC50, SARS-CoV-2 live virus microneutralization [5]: > 50 µg/mL
IgG IC50, SARS-CoV-2 pseudovirus neutralization [2]: 0.32 µg/mL

B10: Ab10 IgM (antibody)
VH: QITLKESGPTLVKPTQTLTLTCTFSGFSLSTSGVGVGWIRQPPGKALEWLALIYWDDDKRYSPSLKSRLTITKDTSKNQVVLTMTNMDPVDTATYYCAHHKIERIFDYWGQGTLVTVSS
VL: QSALAQPASVSGSPGQSITISCTGTSSDVGAYNYVSWYQQHPGKAPKLMIYDVSKRPSGVSNRFSGSKSGNTASLTISGLQAEDEADYYCSSYTTSSTVFGGGTKLTVL
chain: not shown
EC50 (read off the curve) [6]: ~0.3 nM
IgM Fold Improvement Over IgG1 [5]: 390 fold
IgM IC50, SARS-CoV-2 live virus microneutralization [5]: 0.0012 µg/mL
IgM Fold Improvement Over IgG1 [2]: 64 fold
IgM IC50, SARS-CoV-2 pseudovirus neutralization [2]: 0.092 ng/mL

B11: Ab10 IgG (antibody, V domains shown)
VH: B10 VH
VL: B10 VL
EC50 (read off the curve) [6]: ~1 nM
IgG IC50, SARS-CoV-2 live virus microneutralization [5]: 0.47 µg/mL
IgG IC50, SARS-CoV-2 pseudovirus neutralization [2]: 0.0059 µg/mL

B12: Ab4 IgM (antibody)
VH: QVQLVESGGGVVQPGRSLRLSCAASGFTFSNYAMYWVRQAPGKGLEWVAVISYDGSNKYYADSVKGRFTISRDNSKNTLYLQMNSLRTEDTAVYYCASGSDYGDYLLVYWGQGTLVTVSS
VL: QSALTQPASVSGSPGQSITISCTGTSSDVGGYNYVSWYQQHPGKAPKLMIYDVSKRPSGVSNRFSGSKSGNTASLTISGLQSEDEADYYCNSLTSISTWVFGGGTKLTVL
chain: not shown
IgM Fold Improvement Over IgG1 [1]: 59 fold
IgM IC50, SARS-CoV-2 live virus microneutralization [1]: 0.0031 µg/mL
IgM Fold Improvement Over IgG1 [2]: 31 fold
IgM IC50, SARS-CoV-2 pseudovirus neutralization [2]: 0.058 ng/mL

B13: Ab12 IgM (antibody)
VH: not shown
VL: B12 VL with S82A, A86G, N91S, L93Y, I96S
chain: not shown
IgM Fold Improvement Over IgG1 [5]: 330 fold
IgM IC50, SARS-CoV-2 live virus microneutralization [5]: 0.0081 µg/mL
IgM Fold Improvement Over IgG1 [2]: 180 fold
IgM IC50, SARS-CoV-2 pseudovirus neutralization [2]: 0.42 ng/mL

B14: Ab4 IgG (antibody, V domains shown)
VH: B12 VH
VL: B12 VL
IgG IC50, SARS-CoV-2 live virus microneutralization [1]: 0.18 µg/mL
IgG IC50, SARS-CoV-2 pseudovirus neutralization [2]: 0.0018 µg/mL

B15: Ab12 IgG (antibody, V domains shown)
VH: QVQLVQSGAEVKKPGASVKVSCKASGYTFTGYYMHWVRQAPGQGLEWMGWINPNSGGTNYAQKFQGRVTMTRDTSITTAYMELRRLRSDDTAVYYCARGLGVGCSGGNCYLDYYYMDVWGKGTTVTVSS
VL: B12 VL with S82A, A86G, N91S, L93Y, I96S
IgG IC50, SARS-CoV-2 live virus microneutralization [5]: 2.7 µg/mL
IgG IC50, SARS-CoV-2 pseudovirus neutralization [2]: 0.077 µg/mL

B16: Ab3 IgM (antibody)
VH: QVQLVESGGGLVKPGGSLRLSCAASGFTFSDYYMSWIRQAPGKGLEWVSYITYSGSTIYYADSVKGRFTISRDNAKSSLYLQMNSLRAEDTAVYYCARDRGTTMVPFDYWGQGTLVTVSS
VL: DIQMTQSPSSLSASVGDRVTITCQASQDITNYLNWYQQKPGKAPKLLIYAASNLETGVPSRFSGSGSGTDFTFTISGLQPEDIATYYCQQYDNLPLTFGGGTKVEIK
chain: not shown
IgM IC50, SARS-CoV-2 live virus microneutralization [1]: 0.0038 µg/mL
IgM IC50, SARS-CoV-2 pseudovirus neutralization [2]: 0.11 ng/mL

B17: Ab3 IgG (antibody, V domains shown)
VH: B16 VH
VL: B16 VL
IgG IC50, SARS-CoV-2 pseudovirus neutralization [2]: 0.00057 µg/mL

B18: Ab1 IgM (antibody)
VH: EVQLVESGGGLVQPGGSLRLSCAASGFTVSSNYMSWVRQAPGKGLEWVSVIYSGGSTFYADSVKGRFTISRDNSMNTLFLQMNSLRAEDTAVYYCARVLPMYGDYLDYWGQGTLVTVSS
VL: not shown
chain: not shown
IgM Fold Improvement Over IgG1 [1]: 10 fold
IgM IC50, SARS-CoV-2 live virus microneutralization [1]: 0.013 µg/mL
IgM Fold Improvement Over IgG1 [2]: 67 fold
IgM IC50, SARS-CoV-2 pseudovirus neutralization [2]: 0.15 ng/mL

B19: Ab1 IgG (antibody, V domains shown)
VH: B18 VH
VL: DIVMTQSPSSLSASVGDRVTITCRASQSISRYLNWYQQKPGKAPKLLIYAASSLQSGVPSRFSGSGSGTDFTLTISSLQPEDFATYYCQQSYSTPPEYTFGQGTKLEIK
IgG IC50, SARS-CoV-2 live virus microneutralization [1]: 0.13 µg/mL
IgG IC50, SARS-CoV-2 pseudovirus neutralization [2]: 0.01 µg/mL
